Legend:
[1] = molecular target: T1, Recombinant Human IL-17 (human, UniProt Q16552 20-155, limits assumed); assay: cell-based or functional assay
[2] = molecular target: T1, Recombinant Human IL-17; assay: direct bind ELISA, antigen coated on plate (N-terminal VD)
Method: (§1) Enzyme Linked Immunosorbent Assays to screen for antibodies that bind a desired target antigen were performed as follows. High bind ELISA plates (Corning Costar #3369, Acton, Mass.) were coated with 100 μL/well of 10 μg/ml of desired target antigen (R&D Systems, Minneapolis, Minn.) or desired target antigen extra-cellular domain/FC fusion protein (R&D Systems, Minneapolis, Minn.) or monoclonal mouse anti-polyHistidine antibody (R&D Systems # MAB050, Minneapolis, Minn.) in phosphate buffered saline (10×PBS, Abbott Bioresearch Center, Media Prep# MPS-073, Worcester, Mass.) overnight at 4° C. Plates were washed four times with PBS containing 0.02% Tween 20. Plates were blocked by the addition of 300 μL/well blocking solution (non-fat dry milk powder, various retail suppliers, diluted to 2% in PBS) for ½ hour at room temperature. Plates were washed four times after blocking with PBS containing 0.02% Tween 20.
(§2) Plates were washed 4 times with PBS containing 0.02% Tween 20.
(§3) One hundred microliters of enhanced TMB solution (Neogen Corp. #308177, K Blue, Lexington, Ky.) was added to each well and incubated for 10 minutes at room temperature. The reaction was stopped by the addition of 50 μL 1N sulphuric acid.

[3] = molecular target: T1, Recombinant Human IL-17; assay: BIACORE SPR, DVD-Ig captured, antigen in flow (N-terminal VD)
Method: (§4) The BIACORE assay (Biacore, Inc, Piscataway, N.J.) determines the affinity of antibodies or DVD-Ig with kinetic measurements of on-rate and off-rate constants. […] All chemicals are obtained from Biacore® AB (Uppsala, Sweden) or otherwise from a different source as described in the text. For example, approximately 5000 RU of goat anti-mouse IgG, (Fcγ), fragment specific polyclonal antibody (Pierce Biotechnology Inc, Rockford, Ill.) diluted in 10 mM sodium acetate (pH 4.5) is directly immobilized across a CM5 research grade biosensor chip using a standard amine coupling kit according to manufacturer's instructions and procedures at 25 μg/ml. Unreacted moieties on the biosensor surface are blocked with ethanolamine. Modified carboxymethyl dextran surface in flowcell 2 and 4 is used as a reaction surface. Unmodified carboxymethyl dextran without goat anti-mouse IgG in flow cell 1 and 3 is used as the reference surface. For kinetic analysis, rate equations derived from the 1:1 Langmuir binding model are fitted simultaneously to association and dissociation phases of all eight injections (using global fit analysis) with the use of Biaevaluation 4.0.1 software. Purified antibodies or DVD-Ig are diluted in HEPES-buffered saline for capture across goat anti-mouse IgG specific reaction surfaces. Antibodies or DVD-Ig to be captured as a ligand (25 μg/m) are injected over reaction matrices at a flow rate of 5 μl/min. The association and dissociation rate constants, kₒₙ (M⁻¹s⁻¹) and koff (s⁻¹) are determined under a continuous flow rate of 25 μl/min. Rate constants are derived by making kinetic binding measurements at different antigen concentrations ranging from 10-200 nM. The equilibrium dissociation constant (M) of the reaction between antibodies or DVD-Igs and the target antigen is then calculated from the kinetic rate constants by the following formula: KD=koff/kₒₙ. Binding is recorded as a function of time and kinetic rate constants are calculated.

[4] = molecular target: T2, Recombinant Human IL-6 sR (human, UniProt P08887 20-358); assay: direct bind ELISA, antigen coated on plate (N-terminal VD)
T2 construct: domain: IL-6 sR; Bought reagent; also called IL-6R
T2 sequence (looked up): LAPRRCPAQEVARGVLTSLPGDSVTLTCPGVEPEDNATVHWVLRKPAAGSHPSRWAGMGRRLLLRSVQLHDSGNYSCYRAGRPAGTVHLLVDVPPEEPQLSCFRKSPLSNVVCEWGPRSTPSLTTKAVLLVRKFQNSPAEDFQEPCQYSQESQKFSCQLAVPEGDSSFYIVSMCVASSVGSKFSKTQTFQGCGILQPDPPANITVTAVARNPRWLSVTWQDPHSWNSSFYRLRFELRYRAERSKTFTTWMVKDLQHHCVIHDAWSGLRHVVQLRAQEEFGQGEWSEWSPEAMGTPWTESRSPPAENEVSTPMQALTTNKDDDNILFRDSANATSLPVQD
Method: as §1, §2, §3

[5] = molecular target: T2, Recombinant Human IL-6 sR; assay: BIACORE SPR, DVD-Ig captured, antigen in flow (N-terminal VD)
Method: as §4

[6] = molecular target: T3, Recombinant Human IL-1β (human, UniProt P01584 117-269); assay: cell-based or functional assay
[7] = molecular target: T3, Recombinant Human IL-1β; assay: direct bind ELISA, antigen coated on plate (C-terminal VD)
Method: as §1, §2, §3

[8] = molecular target: T1, Recombinant Human IL-17; assay: as above
Method: as §1, §2, §3

[9] = molecular target: T1, Recombinant Human IL-17; assay: BIACORE SPR, DVD-Ig captured, antigen in flow (C-terminal VD)
Method: as §4

T1 sequence (Q16552 20-155 limits assumed): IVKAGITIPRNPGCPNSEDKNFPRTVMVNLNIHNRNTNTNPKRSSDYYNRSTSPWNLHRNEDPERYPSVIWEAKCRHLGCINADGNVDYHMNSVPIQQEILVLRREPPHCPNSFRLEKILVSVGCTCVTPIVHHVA

B1: DVD156 (IL-17A / PGE2 DVD-Ig) (bispecific antibody)
VH: EVQLVESGGGLVQPGGSLRLSCAASGFTFSNYWMNWVRQAPGKGLEWVAAINQDGSEKYYVGSVKGRFTISRDNAKNSLYLQMNSLRVEDTAVYYCVRDYYDILTDYYIHYWYFDLWGRGTLVTVSSASTKGPEVQLVQSGAEVKKPGASVKVSCKASGYTFTKYWLGWVRQAPGQGLEWMGDIYPGYDYTHYNEKFKDRVTLTTDTSTSTAYMELRSLRSDDTAVYYCARSDGSSTYWGQGTLVTVSS
VL: not shown
notes: Outer domain is AB029 (IL-17A), inner domain is AB048 (PGE2); also called VD156H; VD156L
N-terminal VD IL-17 Neutralization Assay EC50 nM (IL-6 secretion by HS27 cells) [1]: 0.2 nM
EC50 [2]: 0.62 nM
Kd [3]: ≤ 0.0115 nM
koff [3]: < 1e-06 s⁻¹
kon [3]: 86800 M⁻¹ s⁻¹

B2: DVD152 (IL-6R / PGE2 DVD-Ig) (bispecific antibody)
VH: EVQLQESGPGLVRPSQTLSLTCTVSGYSITSDHAWSWVRQPPGRGLEWIGYISYSGITTYNPSLKSRVTMLRDTSKNQFSLRLSSVTAADTAVYYCARSLARTTAMDYWGQGSLVTVSSASTKGPEVQLVQSGAEVKKPGASVKVSCKASGYTFTKYWLGWVRQAPGQGLEWMGDIYPGYDYTHYNEKFKDRVTLTTDTSTSTAYMELRSLRSDDTAVYYCARSDGSSTYWGQGTLVTVSS
VL: DIQMTQSPSSLSASVGDRVTITCRASQDISSYLNWYQQKPGKAPKLLIYYTSRLHSGVPSRFSGSGSGTDFTFTISSLQPEDIATYYCQQGNTLPYTFGQGTKVEIKRTVAAPDVLMTQTPLSLPVTPGEPASISCTSSQNIVHSNGNTYLEWYLQKPGQSPQLLIYKVSNRFSGVPDRFSGSGSGTDFTLKISRVEAEDVGVYYCFQVSHVPYTFGGGTKVEIKR
notes: Outer domain is AB054 (IL-6R), inner domain is AB048 (PGE2); also called VD152H; VD152L
EC50 [4]: 1.62 nM
Kd [5]: 0.275 nM
koff [5]: 0.000115 s⁻¹
kon [5]: 420000 M⁻¹ s⁻¹

B3: DVD157 (PGE2 / IL-1b DVD-Ig) (bispecific antibody)
VH: EVQLVQSGAEVKKPGASVKVSCKASGYTFTKYWLGWVRQAPGQGLEWMGDIYPGYDYTHYNEKFKDRVTLTTDTSTSTAYMELRSLRSDDTAVYYCARSDGSSTYWGQGTLVTVSSASTKGPQVQLVESGGGVVQPGRSLRLSCAASGFTFSVYGMNWVRQAPGKGLEWVAIIWYDGDNQYYADSVKGRFTISRDNSKNTLYLQMNGLRAEDTAVYYCARDLRTGPFDYWGQGTLVTVSS
VL: DVLMTQTPLSLPVTPGEPASISCTSSQNIVHSNGNTYLEWYLQKPGQSPQLLIYKVSNRFSGVPDRFSGSGSGTDFTLKISRVEAEDVGVYYCFQVSHVPYTFGGGTKVEIKRTVAAPEIVLTQSPDFQSVTPKEKVTITCRASQSIGSSLHWYQQKPDQSPKLLIKYASQSFSGVPSRFSGSGSGTDFTLTINSLEAEDAAAYYCHQSSSLPFTFGPGTKVDIKR
notes: Outer domain is AB048 (PGE2), inner domain is AB032 (IL-1b); also called VD157H; VD157L
C-terminal VD IL-1β Neutralization Assay EC50 nM (IL-8 release by MRC5 cells) [6]: 3.22 nM
EC50 [7]: 2480 nM

B4: DVD155 (PGE2 / IL-17A DVD-Ig) (bispecific antibody)
VH: EVQLVQSGAEVKKPGASVKVSCKASGYTFTKYWLGWVRQAPGQGLEWMGDIYPGYDYTHYNEKFKDRVTLTTDTSTSTAYMELRSLRSDDTAVYYCARSDGSSTYWGQGTLVTVSSASTKGPEVQLVESGGGLVQPGGSLRLSCAASGFTFSNYWMNWVRQAPGKGLEWVAAINQDGSEKYYVGSVKGRFTISRDNAKNSLYLQMNSLRVEDTAVYYCVRDYYDILTDYYIHYWYFDLWGRGTLVTVSS
VL: not shown
notes: Outer domain is AB048 (PGE2), inner domain is AB029 (IL-17A); also called VD155H; VD155L
C-terminal VD IL-17 Neutralization Assay EC50 nM (IL-6 secretion by HS27 cells) [1]: 5.7e-05 nM
EC50 [8]: 248 nM
Kd [9]: 3.37 nM
koff [9]: 0.000125 s⁻¹
kon [9]: 37000 M⁻¹ s⁻¹

— US20150017095A1 (AbbVie / Abbott, published 2015)
